Assay results reported in patent US20110262445A1 (CEPHALON AUSTRALIA, published 2011).

T1: human IL-23 (human, UniProt P29460 23-328; Q9NPF7 20-189)
T1 construct: Recombinant (Ebioscience); HIS-tagged in flow cytometry, biotinylated in some assays; also called hIL-23; rhIL-23
T1 sequence 1: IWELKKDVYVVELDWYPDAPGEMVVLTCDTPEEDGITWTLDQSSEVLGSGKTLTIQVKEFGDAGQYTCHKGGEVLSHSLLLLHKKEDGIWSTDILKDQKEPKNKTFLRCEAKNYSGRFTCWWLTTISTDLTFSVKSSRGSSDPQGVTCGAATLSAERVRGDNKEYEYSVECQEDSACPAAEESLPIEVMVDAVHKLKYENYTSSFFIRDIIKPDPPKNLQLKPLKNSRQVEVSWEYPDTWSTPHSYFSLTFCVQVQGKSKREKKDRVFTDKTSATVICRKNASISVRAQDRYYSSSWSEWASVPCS
T1 sequence 2: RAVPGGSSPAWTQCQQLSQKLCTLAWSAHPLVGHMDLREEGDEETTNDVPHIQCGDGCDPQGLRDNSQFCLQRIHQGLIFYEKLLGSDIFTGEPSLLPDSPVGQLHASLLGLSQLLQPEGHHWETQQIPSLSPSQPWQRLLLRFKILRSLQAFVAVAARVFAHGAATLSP


Legend:
human IL-23 [1] = target: T1, human IL-23; assay: SPR, single 81 nM analyte, scFv via FLAG; LOD about 1 × 10^-5 s^-1
human IL-23 [2] = target: T1, human IL-23; assay: SPR, single 81 nM analyte, scFv via FLAG

| koff (human IL-23 [1]) | Kd (human IL-23 [2]) | kon (human IL-23 [2]) | Binder |
| --- | --- | --- | --- |
| < 1e-05 s⁻¹ | ≤ 0.016 nM | 220000 M⁻¹ s⁻¹ | scFv combo. # 12 (scFv, scFv-80 with VH T28A, Y59S, T68S; not shown: proprietary C-terminal FLAG tag) scFv: QVQLVQSGAEVKKPGASVKVSCKASGYAFTDYYLHWVRQAPGQGLEWMGWIDPENGDTESAPKFQGRVSMTTDTSTSTAYMELRSLRSDDTAVYYCNANKELRYFDVWGQGTMVTVSSGGGGSGGGGSGGGGSEIVMTQSPATLSVSPGERATLSCRASQSISINLHWYQQKPGQAPRLLIYFASQSISGIPARFSGSGSGTEFTLTISSLQSEDFAVYYCQQSNSFPLTFGGGTKVEIKR |
| < 1e-05 s⁻¹ | ≤ 0.013 nM | 220000 M⁻¹ s⁻¹ | scFv combo. # 10 (scFv, scFv-80 with VH T28A, Y59H; not shown: proprietary C-terminal FLAG tag) scFv: QVQLVQSGAEVKKPGASVKVSCKASGYAFTDYYLHWVRQAPGQGLEWMGWIDPENGDTEHAPKFQGRVTMTTDTSTSTAYMELRSLRSDDTAVYYCNANKELRYFDVWGQGTMVTVSSGGGGSGGGGSGGGGSEIVMTQSPATLSVSPGERATLSCRASQSISINLHWYQQKPGQAPRLLIYFASQSISGIPARFSGSGSGTEFTLTISSLQSEDFAVYYCQQSNSFPLTFGGGTKVEIKR |
| < 1e-05 s⁻¹ | ≤ 0.027 nM | 220000 M⁻¹ s⁻¹ | scFv combo. # 11 (scFv, scFv-80 with VH Y59S; VL S26P; not shown: proprietary C-terminal FLAG tag) scFv: QVQLVQSGAEVKKPGASVKVSCKASGYTFTDYYLHWVRQAPGQGLEWMGWIDPENGDTESAPKFQGRVTMTTDTSTSTAYMELRSLRSDDTAVYYCNANKELRYFDVWGQGTMVTVSSGGGGSGGGGSGGGGSEIVMTQSPATLSVSPGERATLSCRAPQSISINLHWYQQKPGQAPRLLIYFASQSISGIPARFSGSGSGTEFTLTISSLQSEDFAVYYCQQSNSFPLTFGGGTKVEIKR |

Second part, the binder before the results:

| Binder | koff (human IL-23 [1]) | Kd (human IL-23 [2]) | kon (human IL-23 [2]) |
| --- | --- | --- | --- |
| scFv combo. # 1 (scFv, scFv-80 with VH Q43R, Y59H; VL I55T; not shown: proprietary C-terminal FLAG tag) scFv: QVQLVQSGAEVKKPGASVKVSCKASGYTFTDYYLHWVRQAPGRGLEWMGWIDPENGDTEHAPKFQGRVTMTTDTSTSTAYMELRSLRSDDTAVYYCNANKELRYFDVWGQGTMVTVSSGGGGSGGGGSGGGGSEIVMTQSPATLSVSPGERATLSCRASQSISINLHWYQQKPGQAPRLLIYFASQSTSGIPARFSGSGSGTEFTLTISSLQSEDFAVYYCQQSNSFPLTFGGGTKVEIKR | < 1e-05 s⁻¹ | ≤ 0.032 nM | 230000 M⁻¹ s⁻¹ |
| scFv combo. # 7 (scFv, scFv-80 with VH F29L, Y59H; not shown: proprietary C-terminal FLAG tag) scFv: QVQLVQSGAEVKKPGASVKVSCKASGYTLTDYYLHWVRQAPGQGLEWMGWIDPENGDTEHAPKFQGRVTMTTDTSTSTAYMELRSLRSDDTAVYYCNANKELRYFDVWGQGTMVTVSSGGGGSGGGGSGGGGSEIVMTQSPATLSVSPGERATLSCRASQSISINLHWYQQKPGQAPRLLIYFASQSISGIPARFSGSGSGTEFTLTISSLQSEDFAVYYCQQSNSFPLTFGGGTKVEIKR | < 1e-05 s⁻¹ | ≤ 0.0033 nM | 200000 M⁻¹ s⁻¹ |
| scFv combo. # 9 (scFv, scFv-80 with VH Q43R, Y59S; VL I55T; not shown: proprietary C-terminal FLAG tag) scFv: QVQLVQSGAEVKKPGASVKVSCKASGYTFTDYYLHWVRQAPGRGLEWMGWIDPENGDTESAPKFQGRVTMTTDTSTSTAYMELRSLRSDDTAVYYCNANKELRYFDVWGQGTMVTVSSGGGGSGGGGSGGGGSEIVMTQSPATLSVSPGERATLSCRASQSISINLHWYQQKPGQAPRLLIYFASQSTSGIPARFSGSGSGTEFTLTISSLQSEDFAVYYCQQSNSFPLTFGGGTKVEIKR | < 1e-05 s⁻¹ | ≤ 0.027 nM | 220000 M⁻¹ s⁻¹ |
| scFv combo. # 6 (scFv, scFv-80 with VH T28A, Y59H, T68S; not shown: proprietary C-terminal FLAG tag) scFv: QVQLVQSGAEVKKPGASVKVSCKASGYAFTDYYLHWVRQAPGQGLEWMGWIDPENGDTEHAPKFQGRVSMTTDTSTSTAYMELRSLRSDDTAVYYCNANKELRYFDVWGQGTMVTVSSGGGGSGGGGSGGGGSEIVMTQSPATLSVSPGERATLSCRASQSISINLHWYQQKPGQAPRLLIYFASQSISGIPARFSGSGSGTEFTLTISSLQSEDFAVYYCQQSNSFPLTFGGGTKVEIKR | < 1e-05 s⁻¹ | ≤ 0.041 nM | 230000 M⁻¹ s⁻¹ |
